# ± gives the uncertainty stated by the source.
# Experiment: amyloid nucleation score (Sup35N fusion, yeast selection) (log enrichment); library NNK2; higher = more nucleation; inactive = no reads after selection
# Method in brief: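 The nucleation score is the log enrichment of output over input reads, calculated with DiMSum and centred on the mode score of non-aggregating sequences. Sequences with under 100 input reads were excluded. Reads came from Illumina sequencing of plasmid inserts from psi-negative yeast expressing Sup35N fused to peptides of 20 random codons, induced 24 hours with 100 μM copper sulfate and grown 7 days at 30°C without adenine and uracil.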
row,Substance,amyloid nucleation score
1,HWKVENRLNSMEWKSMGGQN,3.97 ± 0.053
2,LGTLGYTDAILWNYMSHCKG,inactive
3,LISATPQSSFHHFEMNSGSH,0.275 ± 0.23
4,VLSNNFWRMSNFWVRMRHTL,-0.25 ± 0.63
5,IRSRLFFALLCVYS,-0.861 ± 0.41
6,RLYKRLR,-1.19 ± 1.1
7,SNVWAQ,0.571 ± 0.57
8,SYVGICGAMNLCSETVSCMV,-0.977 ± 0.41
9,SRYIM,-1.06 ± 1.1
10,VKTRCVVHCMNNFPGCMIEL,6.887 ± 0.065
11,DGTAFMARPKETSIPDVSSS,-0.593 ± 0.33
12,LSGSPVYCYCRLR,-0.453 ± 0.78
13,VLYQGALRYGNVRRGHLIRF,0.105 ± 1.1
14,RTDRSYRGLKPVVLVTQWGG,-0.106 ± 0.63
15,VILNYVIYL,10.08 ± 0.071
16,LDGFLLSISLRINKRLSSGR,4.79 ± 0.061
17,SWYLFGPDR,-0.433 ± 0.54
18,CNLESMQSHFMVLCTFDG,-0.044 ± 0.63
19,TPSDGCQHMASVVISI,0.683 ± 0.8
20,NSVDYSWCCNTSRIRMLVNR,1.2 ± 0.1
21,CTWIYTLTFFARNS,0.01 ± 0.55
22,GCGGAHY,-0.633 ± 0.29
23,LDMITTINS,-1.6 ± 0.54
24,NARFFNSFNSFM,3 ± 0.076
25,TDNMDEMDREYLSCHKFCFG,3.69 ± 0.045

row,Substance,amyloid nucleation score
1,NWIPSI,-0.817 ± 0.41
2,NYSGYLLNASVRRTMRRRVF,-1.18 ± 0.47
3,SEVLNVFA,-1.14 ± 0.34
4,VLSSRLASIEGNKSSVGFYG,inactive
5,DRARRVVIIWVYLIDRVNVR,0.004 ± 1.1
6,SMLGKRIFYRCSRLMHNF,-0.175 ± 0.27
7,EVSQGLDSILYLWYDEWDSA,-0.608 ± 0.31
8,YIGRMVV,0.306 ± 0.65
9,RLTSGIW,-0.814 ± 0.76
10,WNGQDGQGLVGLKRP,0.344 ± 0.23
11,RRGQEGYRVEWA,1.22 ± 0.59
12,ISCHLFLLALYGWNKCVCSV,0.114 ± 0.62
13,LWLGLFGCVVLHGFRIKMAL,0.251 ± 0.35
14,WLGIAAM,1.15 ± 0.43
15,RIGCRRPRFDNEQQWARS,5.62 ± 0.093
16,AETLPFWGNG,0.695 ± 0.57
17,VCNFLYNGLEFVNLECFWR,inactive
18,MFAVLSLDRGYHKAR,-0.205 ± 0.55
19,DSSGVGTRLDCKLCFENLID,-0.952 ± 0.47
20,ACHRFYLMKSML,1.28 ± 0.36
21,RDMVTVVCTWEKWCCRFPDL,0.063 ± 0.21
22,WCGYMNSSIKSRYSTYTFRS,2.13 ± 0.088
23,YVLFLVRWRVNRV,2.19 ± 0.11
24,SRHKFRSITFIEIHPMI,0.012 ± 0.43
25,GPTNVIRTISRDTTIV,-0.646 ± 0.39

row,Substance,amyloid nucleation score
1,NNCNSSSSFIIPVAFTSVIN,-1.67 ± 0.61
2,IWEVNKVIIQYFPIAFKK,5.713 ± 0.05
3,TKCVFIVCRLYVFDMVGLYV,-0.573 ± 0.78
4,SFEPFETLEREVPPPLTWPT,1.99 ± 0.2
5,YVFLGD,2.35 ± 0.11
6,WSGDFLRYHCHAGDRCMMTM,-0.78 ± 0.63
7,GHAHLCSMYVVSIRLHLSMV,5.59 ± 0.081
8,SSTKIFHLL,inactive
9,VEWEVMGVPDSKLDRGTGTV,1.09 ± 0.53
10,RFMHGTTCHTKYHRHLSTET,0.766 ± 0.23
11,VWPQCYLSLVF,-0.082 ± 0.49
12,VLSYRVHLEPARCFSGGYCY,0.512 ± 0.19
13,FNCPRSAMIVNQRHRILSGV,-0.057 ± 0.43
14,SWHQKSELKTCWSLAIQYHT,-0.191 ± 0.65
15,SSSREALCRKHDGVL,0.905 ± 0.45
16,RRDSVKCVSARGRISLLVSR,2.8 ± 0.056
17,VSWCFFDHYHSTILKHGTVS,inactive
18,PYGFRVFTLWMLKRDSS,0.92 ± 0.57
19,VDARALDMIVVRDQTFRCTM,1.24 ± 0.33
20,QVCDRILTWSRLPLSISRVR,0.062 ± 0.79
21,CDYWYYIGRRNVEMEHRVTC,0.148 ± 1
22,VSMNDVLYLMCS,-0.556 ± 0.25
23,SYVIP,-1.06 ± 1
24,GSMVLPIICNKIAYRSCSTI,-0.828 ± 0.56
25,CCRNLRDRLNW,inactive

row,Substance,amyloid nucleation score
1,YICVTMPVWIH,7.536 ± 0.042
2,YRSSSWVNWIQWH,3.47 ± 0.095
3,ICSCTGTYVVRNRMTGTL,-0.786 ± 0.49
4,INMGMYDSNVCDA,-0.034 ± 0.65
5,LRDTPLMGWYCFRSHLVTVS,1.3 ± 0.51
6,WDPQCGSLPFFLLNAEAFET,inactive
7,GNHSAVAPS,-0.677 ± 0.38
8,MASTIWIMLVYDLNARKMHI,4.87 ± 0.073
9,IMPNLAPGCRIRAIVND,-0.006 ± 0.29
10,AYLLWVRYIYEHDSTIGWLI,inactive
11,SYVSIWLACWLISFNWSGNG,0.713 ± 0.58
12,LVFFSLDFYYRGWHRDWIAG,-1.26 ± 0.64
13,CDISRGLILYTHGLLFWTIR,inactive
14,QNCSHGSLCG,-0.022 ± 0.25
15,QTFDYW,0.256 ± 0.74
16,FDLNAREHYRASRGDTGTGH,1.16 ± 0.68
17,CPFESRIAST,0.132 ± 0.26
18,YWLECILSGVYHDGYDSYSL,inactive
19,FYLYFIYGSVCSLSRFNPIR,1.53 ± 0.1
20,FYSAVYMLFIVMWFGYSLIN,inactive
21,LVTEVEFMSTAAGKECYCNI,-0.555 ± 0.35
22,CRYTASASDPDDTGLIRFNA,3.75 ± 0.073
23,VYLRMSFYYGKRP,4.12 ± 0.044
24,VFSCYSVQHRRLSWMSCD,-0.385 ± 0.41
25,VHLANSMLY,3.15 ± 0.047

row,Substance,amyloid nucleation score
1,NCYMSVLILVRLLGSHLKQS,-0.249 ± 1.1
2,VQGTL,-0.718 ± 0.39
3,DHCDAVNSFEEWLMRGVPYN,-0.06 ± 0.45
4,TMCDSIVIEYGPCIFDSSSS,4.74 ± 0.056
5,VGSFSTVGCR,0.003 ± 0.36
6,SFFFPWCVTGLRVSHTTAKF,-0.237 ± 0.63
7,TLYKFM,-0.476 ± 0.74
8,LSSLTLSMVA,0.561 ± 0.62
9,CHQVI,0.383 ± 0.74
10,DIFLM,0.487 ± 0.15
11,RIVGRSFYMQFGRVWDFLRS,-0.546 ± 0.61
12,ICWPSLLYAPGTVKMSTERV,0.706 ± 0.6
13,ICSSPLRIISINKLSGTYNL,2.25 ± 0.14
14,CNCDMLFCTTVSFRVLDTEN,8.295 ± 0.037
15,NYKRFCSCMLDH,-0.665 ± 0.63
16,WTWGALDRRSGLFEVGGMYF,0.449 ± 0.47
17,KVKSLYLSMVQGWMFYV,-0.425 ± 0.24
18,LSHLLDGGISLKEGYILWMM,-0.252 ± 0.55
19,FSTCVVSGSSLYCGGLTLVH,inactive
20,SGSMKCPSYRYYCPQNIFCT,6.43 ± 0.08
21,PEPFS,inactive
22,WYEYCFCGVMLYRTGDCTRR,3.96 ± 0.086
23,VITLRGAPYTEWLLRALLAS,0.734 ± 0.81
24,AYSKTNVFNSWWLVKCLFLF,inactive
25,CCVAGLFEWHWY,8.409 ± 0.081

row,Substance,amyloid nucleation score
1,SVLLRDMGILYVMRNYYWPL,-0.033 ± 0.76
2,FAKIRGLITFVLQMWVTVYV,-0.278 ± 0.45
3,LDYRPCEDNDDVDVSEILHG,0.224 ± 0.25
4,NASTRSGNYQFARHGLGYRR,1.44 ± 0.17
5,SVIITIGLSIKSALRFRRFQ,4.57 ± 0.058
6,INSLTKAVYYSSHYYPVSLS,inactive
7,VYLSSLDSRMRLSTCFRE,-0.19 ± 0.35
8,NSNFCCVGLCTNFAWFVCLM,8.44 ± 0.064
9,HGSQRFDFWGGYRYW,0.83 ± 0.13
10,MCHVKFIT,3.18 ± 0.067
11,DEEGRVSPDVARLVAVICGA,0.413 ± 0.39
12,DRLTG,-0.705 ± 1.1
13,LIYNVDSVMNFVRVDNYDSP,6.88 ± 0.087
14,EVMCDAKLAGCVTSRPWLSR,0.925 ± 0.34
15,GNRLWFGTIVRHLIYEVYVR,0.665 ± 0.36
16,CCVDDRWVDARPWGSRNSRA,0.491 ± 0.57
17,RRVNFMKVTFNLKVILFRWS,-1.52 ± 1.1
18,DAFGRIGPNEKLYDGEDECW,0.902 ± 0.22
19,FPFKILSVKPH,3.45 ± 0.14
20,GLISIAVSRRVYLFCLVAPV,-0.541 ± 0.79
21,NLVILFGKWRRFLFAQWNWF,inactive
22,SRAGECSSWGHIYGLCVDLR,-0.897 ± 0.55
23,SHCPVRYMVGIS,-1.02 ± 0.78
24,TLRHSKFTSIPVIETGLCGV,-1.44 ± 1.1
25,GVCFSFVFM,8.487 ± 0.064

row,Substance,amyloid nucleation score
1,FIIIVLNNSVFRMKCALASI,-0.202 ± 1.1
2,GDGHLVILLSHFTPWSLNTG,-0.209 ± 0.48
3,DYCLSSICFLIDVGESFERG,0.171 ± 0.44
4,VNLPD,0.15 ± 0.56
5,TFSFFATVDQMFCCVGRCEW,8.132 ± 0.03
6,ITGTFF,1.99 ± 0.084
7,SIRARGLAMRSYSPT,-0.093 ± 0.55
8,NETCGYLNKNWLL,0.04 ± 0.45
9,VINVKEYVGYIVSKVDKGGP,4.24 ± 0.049
10,WIWVMWNKLCDSPDVWLANW,0.816 ± 0.51
11,CDHVVVIIIVGWGAEGE,0.512 ± 0.25
12,LYLVEARVTLYILGPWVVSR,0.927 ± 0.45
13,WSDLFRRTMCGVW,0.624 ± 0.66
14,ENGAKVLVIVYKGYPLVPWV,-0.089 ± 0.46
15,STFIMCDRTDPASIAIA,0.6 ± 0.64
16,SWSCRMEADSGFPAFIGAKK,-0.47 ± 1
17,INSAGNLPQERTVLGYFHCS,-1.44 ± 0.62
18,STWPCNQPSYVSV,0.204 ± 0.28
19,FSACFGCFVLAKSNHY,0.955 ± 0.25
20,VINGVHLSRVLYNPILEFIT,inactive
21,DSFIVYVR,-0.072 ± 0.63
22,FKGSWHAFECEAYEYAWV,-0.018 ± 1.1
23,VFFNYSNCLGLA,inactive

# Reference: the supplement of paper PMC12042874
